Assay results from the DeepSol protein solubility set.

test: soluble on expression in E. coli; label from the status in PepcDB or PDB records

Sequence	soluble on expression in E. coli
FECGVNSLDEWLKRRALANQHSGASRTFVVADHDSRVYGYYAMAAGAVSHQAATSGVRRNMPDPVPVMVLARLAVDQRAQGIKLGAALLQDAVNRVVNVSHNVGVRALLVHALDDRAKQFYAHYGFKESPQHPM	not soluble
LNLSEKQVVKIGILQYVTHDALDAIEKGVEDGLAQEGYKGKKVKLTVLNAEADQSKIQAMSKQLVNHHNDILIGIATPSAQGLAASTKDTPIIMGAVSDPLGAKLVTNMKKPTTNVTGLSNVVPTKQTVQLIKDITPNIKRIGILYASSEDNSVSQVTEFTKYAQKAGLEVLKYSVPSTNEIKTSMSVMTKKVDAVFVPQDNTIASAFRTVIVAANQANIPVYSSVDTMVEQGSIASVAQSQYGLGLETAKQAIKVLRGKPVKDVPVKVIDTGKPSLNLKAAKHLGIKIPKKIMKQAEITVKVD	not soluble
MAHHHHHHMGTLEAGQQGPGSMSKLTVVASPLAPEAVGAYSQAIICNGMVYCSGQIGLDRKTGDFAGKTIEEQSKQVMTNLKYVLEEAGSSMDKVVKTTCLLADIKDFGVFNGIYAEAFGNHKPARACFAAAALPKGALVEVECIATL	soluble
GMTARNILSYSYEEYVEKITAFHGYPAPGVLIGGFMVDLAVKNLPEGILYDAICETRTCLPDAVQLLTPCTFGNGWLTVLPMGLFAVSLYDKFTGEGVRVFLDVEKMGPWQEIRNWFLKLKTKKEQDSERLFKEIREAGPDILELRNVKLKPGFLEKKHKGKIVLCPQCREAYPAQDGELCLSCQGGSPYL	soluble
FEPDDVTEDVIEWVYSTFDGSYDEQPFGGDWTDPEPFRWPVTRRQAVQALDHFVTNRLTEFGSYQDAMLEDEWAMSHSLLSTSLNLGLLGPAEVIERAITAYEDGDAPLNSVEGFIRQVLGWREFLRHVYRREM	not soluble
MDSQLSNRLAQVAAYVPKGVKLLDVGSDHAYLPIFLVETNQISAAIAGEVVRGPYESALKNVTQSGLAEHIQVRLANGLAAFEEADDVTAITICGMGGRLIADILEAGKEKLQGIERLVLQPNNREDDLRAWLSVNAFKIVAETIMAENDKYYEIIVAEHGEKALSATELRFGPYLSQEKSVVFKEKWQREMDKLAYALSCIPEEKTQERQLLLTKIQQIKEVIVHES	not soluble
MAIAYFIPDQAQLLARSYQQNGQQTAASPRTTATAAAPSQQQQQSQQQQQQQRHHHQQQRPQFRANISVPLGSQQGSMTMSEFGCWDLLAQIFCYALRIYSYSSSQRQPTVIQISFEISSGGQNNDEDDVTDATSKEN	not soluble
MGSDKIHHHHHHMRIGVIGLGRIGTIHAENLKMIDDAILYAISDVREDRLREMKEKLGVEKAYKDPHELIEDPNVDAVLVCSSTNTHSELVIACAKAKKHVFCEKPLSLNLADVDRMIEETKKADVILFTGFNRRFDRNFKKLKEAVENGTIGKPHVLRITSRDPAPPPLDYIRVSGGIFLDMTIHDFDMARYIMGEEVEEVFADGSVLVDEEIGKAGDVDTAVVVLRFKSGALGVIDNSRRAVYGYDQRIEVFGSKGRIFADNVRETTVVLTDEQGDRGSRYLYFFLERYRDSYLEELKTFIKNVKSGEPPAVSGEDGKMALLLGYAAKKSLEEKRSVKLEEVIG	not soluble
MSVDEKPIKIKVEKVSKIFGKQTKKAVQMLANGKAKKEILKATGSTVGVNQADFEVYDGEIFVIMGLSGSGKSTLVRMLNRLIEPTAGNIYIDGDMITNMSKDQLREVRRKKISMVFQKFALFPHRTILENTEYGLELQGVDKQERQQKALESLKLVGLEGFEHQYPDQLSGGMQQRVGLARALTNDPDILLMDEAFSALDPLIRKDMQDELLDLHDNVGKTIIFITHDLDEALRIGDRIVLMKDGNIVQIGTPEEILMNPSNEYVEKFVEDVDLSKVLTAGHIMKRAETVRIDKGPRVALTLMKNLGISSIYAVDKQKKLLGVIYASDAKKAAESDLSLQDILNTEFTTVPENTYLTEIFDVVSDANIPIAVVDEKQRMKGIVVRGALIGALAGNNEYINAEGT	not soluble
MEQKKKKNIGFNIIKDDPTDGHRGFGAGALSLENVSPVIIDVEAGEAFVDMGAMHARSAVERGIKFLPDRSAVPNGKPYWIVWVTIERREDGPYYAGVTACEMTIDREARRGYKLLPEHVNRLDKSLKRHIIVDHMDAKSKRVLADFLKGHDIGMWNRSSDELKKGLEGEL	not soluble
MGSDKIHHHHHHMRGYFRADWTERVELSEHDIGELRFSLKNRLGEALLLTSQEDMLRYCRDWHGDVTSSAVAVIRPRSTKEVSDTVIACAELGLAIIPQGGNTGLVLGGIPDAPKHQVVLSLERMNAIRTIDSDDFSAVVEAGCILSEFKDAVQDKGMFFPLSLGAQGSCRIGGNVSTNAGGINVLRYGMTRELVLGLEVVLPDGTIWNGLSTLRKDNRGIDLKQLFIGAEGTLGIITAVAVKLYPNPEHVETALLGLNSLDDAIKLYRRARRECCDLMSAFEFMPPVAFTLAIEAIPDLKMPIAGDYPAYVLMEISGSGLVDTADLMGRFLEGVMEDGLVLDGVIASSRAQAQSLWLFREGMNEGQALRGSHMRTDISVPLSKLAAFVAEAEAELAEKLPECLAVSYGHVGDGNVHLNVLPPNGATLEEREAFIYKSKTLVNEVLDRYVGSISAEHGIGRLKRSDFESRLSDVQRRMITGLKNAFDPDLRMNPGCQITLQPDS	not soluble
MTTEKINLLDFDRKGLRTFFAEELGEKAFRAEQVMKWIYHFGCDDFDQMNNINKQLREKLKAKCEIRAPYVSEAQHSADGTIKWAMRVGDQDVETVYIPEDDRATLCVSSQVGCALECKFCSTAQQGFNRNLRVSEIIGQVWRAAREIGLEKETGRRPITNVVMMGMGEPLLNMKNLIPALEIMLDDLGFGLSKRRVTVSTSGVVSGLEQMIGQIDVALAISLHAPNDKLRSEIMPINDRWNIEAFLEVVRRYIASSNANRGKVTVEYVLLDHVNDGTEHAHELAELLKGTPCKINLIPFNPYPGSPYKKPSNSRIDRFQKTLMQYEHTVTIRKTRGDDIDAACGQLVGDVIDRTKRTKAKQFDGQAIPVKTL	not soluble
MAHHHHHHMSIDAGLCDRYVVFLDIDGVLLPVPKFTFGGGNLSGRCAQTLKRLIAALGGRDKVTLVLSSTWRNHPVMVDRLNTFMQKEAGDGIPVVSERTPNGTVLMSSVTYYADDPSEQRLVRDRVDEVYRWLHTHITDHPEAIGGRWFAIDDMQLDVDERMRGHFLHTQTDVGITEADVDTACAMIASHPSPTEAYAAAVAALADPALKAEEVEIQRVLQSRLEAQLAATTAELTEAQEKMAALSAEKKDLIKELAEKQRSIDDMRYRLAVYDFSKRYPCLATAVELAGTKSGAERRAMDAAIRTFVTLLMDRKELQKKMRSEAKKVKQAS	not soluble
MKDVVEYLVRYLVDRPEAVRVQVRRGKEGTVYLVEVAPEDKGRLIGKGGRVIESLRTVVRAYAKRKVGVEVR	soluble
MKFTIVIPIFNRVQYIPETLDSVIRQTYTDLEIICVDDCSSDRSPVLLQDYAKTDLRIKVLTHAKNKGLYLARKTGVLNASGDYILFLDCDDVLDLHAVEVIYNALCKNSVEVLEYGYHSIHANENTVPDSAITVDKLFSSLVYDRYPRAGTVWNKAYKTELLKNAFSKMSDFHAVMGEDFYESVIIAYYAKSYSSIDDVLVIYNDESGISNTRKNLASIQKDLDSVVAILNGFRFFFESYASEHKEAVLNIESYYIRYVYYNLILLKTNKTDRKMAVDLLKDYFSAEAAAPYFNKTKPAVTRDAVMYKIRAVIKRYISKKLREMIKKIIRRYDKKPQQK	not soluble
MSLTGFLLLHGTIVTVDRERRIIEDGALAINDDRIVDIGTVDELEPRHGGKEVIDCRGKLIIPGLIDAHGHAGHALLRSIAADTNAMWMKIITPTYYHYVTRDYWYADGLISGIERLRAGVTTGASIITSMPRADDPVFAINHARAYSELGLREIICVGPSGLPWPHPVTRWESGQPERRDVSFDEMMDGSEAVIETLHGSADGRISVFLTPFTIVPSVEPSNASSPDQAVKLTEGDRMQARRVREMARKRGVRLHSDAFAGQIRMAFQDKENALLGPDIHLQHCWGISHDEIDILAETGTRVTHAPPGRSTPIMEMMSKSIRVAITTDGAAPSRHFDMLQTARLAQFTQHLLHNHDRYLLPPGKIFEMITIDAAHAIGMEDEIGSLEIGKKADVVIIDMRKPHLMPMWMPVHRLVHQALGSDVDTVFVDGKLLMDNGRVLTSDVDAAITFGQQEAMALAERAGLKVHMHDPGWGRLLRTFDEQVYPPRPPKDASYRVTDHESGQDHEGHHHHHH	soluble
MATNIGMMDSAYFVGRNEILTWINDRLHLNLSRVEEAASGAVQCQMLDMTFPGVVPMHKLVDLKISTDLLEKERDFYFSKLRDVEILCQTPELDDLPVNVSVEPIVVAVKKILYATDANESALEDAQEYLNQSLGVEDDEAEGNGEQLEEEKTQA	soluble
SWKFSRYVRTQMQELEPWQLKQALKTHQGVLQATYEGLVAINSEGSLYLINDSARAMLNYHQELGNVFTDGIDNPESFSLKGDDYINGLIRVNGKNLVMNRVTLRTSTGEPYGAVFSLRDQNEMHVLSEKISQVTQYMENMRVARHEYQNKLSTISGLLQMGAYDKALSVCLSQAKASQSQLDSLHALNSRPALSALILAKASKANELGVALSIDCQSDLSALSRRLSEEQLCGLIGNLAQNALEAVKGQENGHVHIGISESACEYTIQVSNNGPLLESEFDVLCELGFTTKQNKADHGVGMYLVRSIVEQGNGHMELDSDEQETAFTIYFPKELG	not soluble
MANYYEVLGVQASASPEDIKKAYRKLALRWHPDKNPDNKEEAEKKFKLVSEAYEVLSDSKKRSLYDRAGCDSWRAGGGA	soluble
IAPTVWKLADRSKIYMADLESALHYILRIEVGRFPVLEGQRLVALKKFVAVLAKYFPGRPLVQNFLHSVNEWLKRQKRNKIPYSFFKTALDDRKEGAVLAKKVNWIGCQGSEPHFRGFPCSLWVLFHFLTVQAARQNVDHSQEAAKAKEVLPAIRGYVHYFFGCRDCASHFEQMAAASMHRVGSPNAAVLWLWSSHNRVNARLAGAPSEDPQFPKVQWPPRELCSACHNERLDVPVWDVEATLNFLKAHFSPSNIILDFPA	soluble
GPGSMKTIRKRMRLSVSGRSSARSGMSSDTRLPAAVLERETKVINYSHSTSRAMAAQLENCVRLIRGYQASLQYCNEEIEGALLSLGVATTHSLISSITSVMEGLDTLSGVCRAMHEGYNEEVRHREDLHTSLTGAYISLKELHEATENELREVVAERDRKVAAFGKAVAYVEAVVAERMLWQEANGYNCAGLPVVEMSFSESCHEALRKFDDTVSEAQGEGHSNAESLLASTDVPQTLAKRWDNVENLRHTNGLPSARVLYVPPKDEVELLRNVLEMGTGDRALMWDVQQRERALQDSLTNIHVFGHSCLKALHSMREELAEFRQWFLTIDRKCEPIVVAMRKLGNGVCGLSSASDKNLPH	not soluble
SNRFIAVFSDITRHKQTEEDLLRSEQHYRLLHETMLQGVVYQDASGKIISMNPAAERILGKTPAEFLGSSSVGEEYLTIREDGSMFPGLEHPAMVSLRTGQKVQGVVMGVYNPRENFYRWININAVPIFRTGEDRPFQVYTLFDDI	not soluble
MSLQVQKSFKEQTAYGKLYLVPTPIGNLQDMTFRSIAILKKVDYIAAEDTRNTGLLLKHFDISTRQLSFHEHNAFEKIPDLLKLLKSGNSLAQVSDAGLPSISDPGYDLVRAAIQEDIAVIALPGASAGITALIASGLAPQPHIFYGFLPRKSGQQKSFFEEKKYYPETQIFYESPYRVQETLENILSVYGDRQIVLTRELTKLYEEYQRGNISEILTYIAENPLKGECLLLVSGYDHQEKEQQVSEVELKHLVEALVKEGMKPNQAIKKVAKENDFNRQELYQLYHELQEGHHHHHH	soluble
MRNITNFLKTFLLWELLKGLKVTGKHFFTRKVTVQYPDEKTPISNRFRGLHALRRYENGEERCIACKLCEVVCPALAITINSTEREDGTRRTSSYEMDLFKCIFCGYCEESCPVDSIVETNILEYHFEERGENIMTKAKLLAIGDKYEAQIAADRLQDKDFR	not soluble
